Data taken from the supplement of paper PMC7877785.
± gives the uncertainty stated by the source.

Experiment: self-splicing fitness, log relative to wild type (ln ratio); higher = more splicing; Tetrahymena group I intron in knt gene, E. coli kanamycin selection, DiMSum; sequences stand for … in CUCUCU…GGAGGGAAAAGUUAUCAGGCAUGCACCUGGUAGCUAGUCUUUAAACCAAUAGAUUGCAUCGGUUUAAAAGGCAAGACCGUCAAAUUGCGGGAAAGGGGUCAACAGCCGUUCAGUACCAAGUCUCAGGGGAAACUUUGAGAUGGCCUUGCAAAGGGUAUGGUAAUAAGCUGACGGACAUGGUCCUAACCACGCAGCCAAGUCCUAAGUCAACAGAUCUUCUGUUGAUAUGGAUGCAGUUCACAGACUAAAUGUCGGUCGGGGAAGAUGUAUUCUUCUCAUAAGAUAUAGUCGGACCUCUCCUUAAUGGGAGCUAGCGGAUGAAGUGAUGCAACACUGGAGCCGCUGGGAACUAAUUUGUAUGCGAAAGUAUAUUGAUUAGUUUUGGAGUACUCGUGGUCG
Summary of the method: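 Library with all eight P1ex-region intron nucleotides randomised, intron inside the knt kanamycin-resistance gene on pET-22b(+), in E. coli BL21(DE3). Cells grew overnight at 37°C or 30°C on LB agar with or without 25 μg/mL kanamycin (plus 100 μg/mL carbenicillin, 50 μM IPTG, 0.2% rhamnose), in six replicate transformations. Pooled colonies were amplicon-sequenced on Illumina HiSeq 2500. DiMSum fitness is the error-weighted combination of wild-type-normalised replicate fold changes, kanamycin versus none.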

Row | Sequence | self-splicing fitness (ln) (30 °C) | self-splicing fitness (ln) (37 °C)
1 | ACCGAGCAAUAUUACGCCUC | -2.87 ± 0.19 | -2.36 ± 0.22
2 | ACCGAGCAAUAUUACGCGCU | -2.81 ± 0.17 | -1.19 ± 0.19
3 | ACCGAGCAAUAUUACGCUAG | -2.62 ± 0.22 | -1.44 ± 0.21
4 | ACCGAGCAAUAUUACGGAGG | -3.01 ± 0.2 | -2.72 ± 0.23
5 | ACCGAGCAAUAUUACGGAUA | -2.8 ± 0.35 | -2.33 ± 0.27
6 | ACCGAGCAAUAUUACGGCUC | -4.07 ± 0.39 | -1.54 ± 0.35
7 | ACCGAGCAAUAUUACGGCUU | -2.63 ± 0.12 | -1.14 ± 0.13
8 | ACCGAGCAAUAUUACGGGUA | -2.6 ± 0.16 | -0.706 ± 0.13
9 | ACCGAGCAAUAUUACGUCGU | -3.09 ± 0.13 | -1.04 ± 0.11
10 | ACCGAGCAAUAUUACGUGAG | -2.27 ± 0.091 | -0.997 ± 0.091
11 | ACCGAGCAAUAUUACGUUAA | -3 ± 0.13 | -2.7 ± 0.14
12 | ACCGAGCAAUAUUACGUUAG | -4.03 ± 0.15 | -2.65 ± 0.15
13 | ACCGAGCAAUAUUACGUUGU | -3.67 ± 0.17 | -1.5 ± 0.12
14 | ACCUAGCAAUAUUACGAAGU | -3.53 ± 0.19 | -2.72 ± 0.19
15 | ACCUAGCAAUAUUACGACUC | -0.748 ± 0.088 | -0.405 ± 0.098
16 | ACCUAGCAAUAUUACGAGGG | -3.45 ± 0.17 | -1.4 ± 0.12
17 | ACCUAGCAAUAUUACGAUGA | -1.21 ± 0.091 | -0.609 ± 0.1
18 | ACCUAGCAAUAUUACGCACA | -0.931 ± 0.078 | -0.476 ± 0.079
19 | ACCUAGCAAUAUUACGCUAA | -2.61 ± 0.23 | -1.32 ± 0.16
20 | ACCUAGCAAUAUUACGGAAG | -2.8 ± 0.23 | -2.38 ± 0.19
21 | ACCUAGCAAUAUUACGGAGA | -1.83 ± 0.17 | -2.45 ± 0.2
22 | ACCUAGCAAUAUUACGGCCU | -0.404 ± 0.069 | -0.963 ± 0.075
23 | ACCUAGCAAUAUUACGGCGC | -0.607 ± 0.097 | 0.63 ± 0.13
